Data reported in the domain aggregation screens of Martell et al. (2025).

Assay: soluble fraction after stress (log2 fold change); higher = more stays soluble; pooled small domains, quantitative proteomics
Conditions: stress: 50 degC
How it was run: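 Custom libraries of small protein domains were pooled and measured in a high-throughput format, with quantitative proteomics as the read-out. Each library was stressed at 50°C. The value is the log2 fold change in the amount of each protein that stays soluble after stress, used as a measure of aggregation propensity; higher values mean more of the protein stays soluble.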

Sequence | soluble fraction (log2)
HMAANKIDEDRNTELLQVIQNKFPDADAATKKSVKEIMKEHDIPNFKNADDIPTAVLEQIVKVLNQ | 0.323
HMTKEEKEKREKYEKLMKKADELVTAKNHKEAVTVLGQAKAYANPQQTKEIEEKIKAQTAELDKG | 0.239
HMIALLRLGTAPDIKAQAPLATILARHNGEMSAKDLWQRFGGEIDTFYAQLKTEVAHGWILEPT | -0.617
HMVLANLQAAEQGDLGIKEGEKLTILQTRPDGWWTARNANGETGLVPK | 0.173
HMLPELQPGQTFSARIQQALPDNTYRALVAGKQLTLQLPEGAKAGDELELVVLDRSARVIIARQVD | -0.146
HMKQQFTREQIIELMYKAYKKHKKKLNRVEIKKEKALPSYVTIGRYLNETSIKKIWEIVLSEKE | -0.43
HMSGDKKLQMNLILEFAQQNESFRTKDIEELLQIRSSRARKLISDLVTEGRLEALGENRNRRYQLI | -0.985
HMDLPDYYFRVRENGAVVFRVGTENRQRRIEMVEIATVNVKNGNIKPHGEVDLTKADRLAIGEWLAARQAQ | -1.36
HMGVQKGKDNALAVQQWIAERDATGDFGEYERRGIINRSALFDELGIPRSSMGSNDQIRQMIEAADVRWF | -0.189
HMGLSIPLMGAKASDIEISTLNDEVQRKLKIIVKEQGHENLQRVVPLPSEAREIQAHFINGRLHLR | -0.0466
HMEQTIKKYVNVATLNFRSGPSTSYSIISTLSKGTKVEVISTTNNWSKIIYDGKIGYVSSEYLSKSI | -2.1
HMSTEPLALVGKTGIAATVLRPSGRIEVDDKYYDAVSLGAFIEKGEMVNIVKYENLQLYVAKL | -0.0644
HMNSSLLGKRIKSLREDHDLTQKELSLMIGLTPKMISFYENNQRTPPLDILLKLAKIFEVSVDYLIGYA | -0.551
HMDGSEYAGTVRLGDGTLQPVPRFETSNSETPKYLYLVMDVTHDPPVYILEHESAELKSVLGGLVLIGSYS | 0.0759
HMYKDVVVPNTVGDSEEKAYQTLSALGLVVNITYDEDASKSDRVVTSQNPTNKTIKEGESVNIVVNKQP | 0.0711
HMGSLGRAIRSRREKMKVGLEELAAKTGLSESHISDIEEGRGFAPVGDILKIARALTIDPGELLK | 0.361
HMAGTPAVVKWFNPTKGFGFVTPREAGSDALLHASVLAKQGKRWLQEGTVVEVVLEEGPKGLVVSEVLTIE | -0.457
HMYNTDAMGVRIGELRRAKGLTQEAFAKTLGISAQAVSKWETGLGFPDISLLPMIAETLGTKIETLFGAE | -0.0826
HMKGWPDREQAEKIWQQGIDYAIEHHTMSPQIVKEYIFHTQGIARSAALIAARLPDMDTEKAYVLGLLHD | -0.214
HMNMVSGHLQVKKGYYYAVLSFYDSKNKRHVKYISTGLPEKGNKRKAEAELVKIRNAFEPPAE | -0.338
HMEDSEYDRLLAEIDEGIRKAIETLEPVELSPQNARVRRIQHQIIEKYQLHSDSVGEEPYRRVRIL | -0.593
HMDDDAELLLKKLSAAGGELPFHDRSEPAEIEAAFGLSKSAFKRALGKLLKAGKVVKTQQGIQLK | 0.0395
HMRDGYEKPTEVGEGGRNPAMLSYIGHLRAKGHLSEEDIRSMAHGFNATTFDPPLDRDEVDGLVSRY | 0.124

Sequence | soluble fraction (log2)
HMIIVMSANANAREISEVIARIRAMGYDVHLSHGKERTIIGVIGRGTPIDREQLSLMSGVQQVMPV | -1.03
HMENLSGNDIKYLRKKYNLTQKELADALGLQKFGDRTIRRWEAEETHPSKLEQSSIQSFFNSLK | 0.0091
HMEEYLENLTQSKLLHMLDQLSPAYKTVFTLFVLDELSHEEISKMLNISIGTSKSNLFRARKVMRVLMESE | -0.397
HMRRVGTALNRSHKVSYGESIQSIAARYNVNPTMLREYNRLKPEATITPGQILRIPPATIAS | 0.00426
HMSSNLTVFTRNNAIIVNSDVVRKLNVFAVDGRLVRSVDLSVGENVINNISRGMYLIDKQKVVV | -0.353
HMSEQSEALRTGLDQLPINQRTALTLFHLHELNQSEVAKIMNISVGAVESLLFRGRQKMKQLLTSD | -0.725
HMGGLLSVIQKKAINNVKDRYSENAIKSMTKVQLHDLIKAETSRLLDPANAKETPEYQAFLEE | 0.0926
HMNQLSYTERRVLQVIEGGTTKTGEIEQALAAKMSRPTVHRALDALVGANRIHRLARGEYALGPAP | -0.147
HMRTGLSGMIGEIGIVKQAIDPEGKVAVHGELWKARADVALAAGQTVRVVAVDGLTMTVEATDSK | -0.0264
HMEPERRHLEVPAEAEGERIDRFLASQLENLSRSRIQALIKAGYVRNRRGTIEDPGLRVKPGDAFVVDLPP | 0.44
HMSDHKNANFTKVVKVAQELLQDEDDKAGITPTLIEEKISAVLAMNRRWAEGLDRAAVADELIRRFSIW | -0.42
HMESPLEQLTNRELQTLQMLGKGLSTKQIAAQLNLSVKTVETYRENLKRKLNLDSGSELIRYAIHRSNE | 0.469
HMEDAFLQRLISIIEANLSNVDFNVKMLAEQLNMSQPTLYRKVKQRSELSVIDMIRSIRILSLIHISEPTR | -0.988
HMDWVAYGAELRRRRLLAGWTVAELSRRINLSGMTIHQIEKGRGRLRPSELTLAKLAAALGMPTP | -3.47
HMTNTYEVIKNDIIFGVLPPLKKLKLLELKKKYITSVSTLREILSRLSGDGFVVSKEQKGFYVSAV | -0.00437
HMIDFDHADIERLWNSIIHYVPERQKLDFAIDFIKSLEDIGVEHDVLRGSAELDPKLEEAVNTVFE | -0.52
HMLVMTDNVIKAINDLLNYEAAAGIKKKQRYTAYQIYKELSEQGVYHGSRRRMEEVVSKLRVERNQI | -2.78
HMNSFKIYPNPSSREVVRFNQAQDVKVYDTLGKLILSAKNTSAIDTKSFNTGIYFIKTANGLTKKLIV | -0.695
HMENEFEAYSDGSSIQLNDPSKATYVVFDRQGRLLHLFQNHSLSSLSIERKNQILIITRETADGVSVKKIV | -0.415
HMKYKWLAGQLRRELLENGGKKGYKLPTELELARRYQLSRQTVRRALQLLEEEGLILRRQGSGAYATGKPP | -0.316
HMKKAENEKLNIPYDVTEFLASSIKDDIRMMEGAMVKLLALSSLTKQDITQSLAKRVIQDVLGSSA | -0.097
HMVTGSIYERKGIYYAIVSYYVDGRRKQKSVSTGLSVKGNKRRALEFLENLKRTYETKESMENMD | -3.16
HMKDANIQIGKRLREARLNMNLEKSEIADVLGVTVEHYRKLEAGVMGISVDKVLTLYHKYGIDPTYLITG | -1.19

Sequence | soluble fraction (log2)
HMLYGRRFQVEGLNLERYLRAAADSGIPLKGARRFGRTLTGVAAEEHMAALEALARQGGWLFTPLEAVGAN | -0.22
HMKPVYNKVEIPRGGEYALVLSDGTKVHLNSMSSLRFPVAFTTGKREVELQGEAYFEVSKTGQPFIVNV | -0.0523
HMDDDIKNALDVLPEQYRMTVYYADVEGLAYKEIGAIMNTPIGTVMSRIHRGRSQLRVLLAAVAADR | -0.0377
HMERPKSLRELALEHLRNSIIDGSLKMGQVLSERKISEELGVSKSPVREALAQLRDEGLVSIEPQKGARV | 0.213
HMEVGKRIAEIRKENRMSQEQFGQLFHVTRQTVSNWENAKSYPDLQTLVKISELFEITMDELLK | -0.511
HMDNIKRGEMFYISRGGASYSGSEQHSDRPAVVVSNDKNNENSNVVEVVYMTTQPKTDLPTHVTVR | 0.0894
HMRMTKQRQAVLDELTRVTDFRSAQQIFEDLHSQGHRVGLATIYRSLQGLAEDGSVDTLRSSDGESLY | -0.0884
HMPPALTELLSVRTNASGTIDYLLPDRSAGLRVENGSKYSGMVPDSIYRLVAIYEIKDAKEPSAYIYTI | -0.00921
HMVGADTISDLISQRGRMIGDKPITNAVIKSGSEFSTINALSKAIASGDARTNDVEGMKPVFR | -0.0638
HMSTQVPDVKERSQEEARSILESAGFKVTPAVKTEDSADIAKDMVTKTDPAAGQSVPKGTTITIYVSS | 0.149
HMDPVATLTPREREVLELMAEGRTNAGIAEAMVVTEGAVEKHIQRIFAKLGLHADGGVHRRVAAVLALLG | -1.01
HMDLKHNQITMRELLRNKQAYLLLYKEFPMFMTPAILQNIRPLTLQQIIQMVRPYISRPKLNMLLEQLENI | -0.124
HMRVNINVSENILDWVMKRVNPSVLSSKQGELLYAWKEGRKVPTYNQIEKMSKVTGIPLGYFFLEKPPVE | -0.569
HMDTQKYDLNDDGRFDVQDVTYLQIKIAGDGELTDNQKKIADYNNDGKIDVQDVTSAQMLIS | -0.0732
HMIFTPNGDRVNDVFEIEMGVKLEFQIIILNQQNQTVFKSADPDFKWDGTMLNGEPAPSGTYLYYFSAKD | 0.0847
HMRESRLFQILYQLLTKKKVTAANLAKQFEVSVRTIYRDIDALSSSGIPIYASQGKNGGIQLDEDF | -1.11
HMDIHSEEYILGQNIRKYRLRLGWSQADLSNAVDIDRADISKYENGAKGIMSSTLLRKFAKALGVSMDALM | -2.76
HMIILDASASRAIGNGTIEETKWDFGNGESSTNRGGPIVERQIYANQAAYILKLSMKTNDGQLFTKEIQLL | -0.0666
HMTANPHKPEPLQIDTSDITPGVTVIHKAFGNGTVVSVDNNRILIDFDGIEKKFPFPGAFLYGFLQK | 0.132
HMHTGEVVNGKVIDVKEDQIILNVGFKSDGIITRSEYSNDNSLDLRTVVNVGDDMEAKVLKINDGEGQVLL | -0.185
HMSSPDMSLLYSELDVKDSGQIVTILEQRNIPYEVRNNGSQIYIPSNNVQRIRLSLAQEGLPSG | -0.0716
HMRQQQISAAIKTSVNGTVDYYVRRLPERDPRGDFLEVWDDLQKVIQAAHGIQVSHDELYEYFRRLK | -0.337
HMALKPKITIEELIRILNESKDLSDSETAKILNKDYTTAKYGKEFTSINVQGARYALDIATNTS | -0.135
